Measurements reported in doi:10.1101/713933.

Target: portal protein of bacteriophage P23-45 (in situ, in the procapsid) (bacteriophage P23-45 (Thermus thermophilus phage))
Experiment: cryo-EM structure

portal protein of bacteriophage P23-45 (in situ, in the procapsid) (natural protein)
stoichiometry N: 12 subunits
